Reference: publication PMC9482650, “Quantitative fragmentomics allow affinity mapping of interactomes” (Nature Communications, 2022)

T1: LIN7C, Q9NUP9
T1 sequence (Q9NUP9 88-185, limits assumed, looked up): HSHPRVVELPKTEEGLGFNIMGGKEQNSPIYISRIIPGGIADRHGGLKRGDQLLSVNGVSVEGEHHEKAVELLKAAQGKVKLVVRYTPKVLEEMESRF

T2: APBA1_1, Q02410
T2 sequence (Q02410 651-752, limits assumed, looked up): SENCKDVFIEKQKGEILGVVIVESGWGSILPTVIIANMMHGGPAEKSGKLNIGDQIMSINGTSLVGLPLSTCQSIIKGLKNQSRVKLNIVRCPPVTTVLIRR

T3: MPP7, Q5T2T1
T3 sequence (Q5T2T1 134-230, limits assumed, looked up): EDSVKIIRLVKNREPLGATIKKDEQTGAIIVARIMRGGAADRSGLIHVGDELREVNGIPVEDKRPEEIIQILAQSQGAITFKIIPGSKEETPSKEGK

T4: DLG3_2, Q92796
T4 sequence (Q92796 221-321, limits assumed, looked up): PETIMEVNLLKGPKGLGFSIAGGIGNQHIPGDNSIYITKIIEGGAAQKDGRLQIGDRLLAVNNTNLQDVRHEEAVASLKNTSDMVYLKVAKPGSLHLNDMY

T5: GRIP1_3, Q9Y3R0
T5 sequence (Q9Y3R0 247-346, limits assumed, looked up): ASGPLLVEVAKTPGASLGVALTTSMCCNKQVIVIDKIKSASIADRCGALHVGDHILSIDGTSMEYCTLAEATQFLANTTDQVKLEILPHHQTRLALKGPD

T6: GRIP1_4, Q9Y3R0
T6 sequence (Q9Y3R0 467-571, limits assumed, looked up): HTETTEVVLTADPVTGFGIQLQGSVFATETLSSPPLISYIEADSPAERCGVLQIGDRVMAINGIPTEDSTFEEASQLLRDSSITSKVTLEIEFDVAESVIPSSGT

T7: LIN7B, Q9HAP6
T7 sequence (Q9HAP6 88-185, limits assumed, looked up): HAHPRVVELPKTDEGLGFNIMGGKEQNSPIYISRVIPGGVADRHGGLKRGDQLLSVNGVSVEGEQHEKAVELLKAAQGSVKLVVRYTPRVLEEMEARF

T8: DFNB31_2, Q9P202
T8 sequence (Q9P202 274-371, limits assumed, looked up): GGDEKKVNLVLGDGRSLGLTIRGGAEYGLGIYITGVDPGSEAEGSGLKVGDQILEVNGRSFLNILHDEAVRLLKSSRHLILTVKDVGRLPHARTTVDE

T9: ARHGAP21, Q5T5U3
T9 sequence (Q5T5U3 45-169, limits assumed, looked up): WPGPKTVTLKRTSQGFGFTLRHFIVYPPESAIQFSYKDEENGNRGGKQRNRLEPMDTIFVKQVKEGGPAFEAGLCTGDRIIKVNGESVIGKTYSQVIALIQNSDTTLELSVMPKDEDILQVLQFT

T10: HTRA3, P83110
T10 sequence (P83110 354-453, limits assumed, looked up): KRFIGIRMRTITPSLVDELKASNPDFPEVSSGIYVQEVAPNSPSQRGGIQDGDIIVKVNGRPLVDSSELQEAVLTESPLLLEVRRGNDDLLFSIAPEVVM

T11: PDZRN3_1, Q9UPQ7
T11 sequence (Q9UPQ7 244-349, limits assumed, looked up): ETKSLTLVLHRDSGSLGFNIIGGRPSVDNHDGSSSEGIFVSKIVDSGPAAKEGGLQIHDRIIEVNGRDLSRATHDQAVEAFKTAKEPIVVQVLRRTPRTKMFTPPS


Legend:
Assay in all cases: holdup assay
Parameters in all cases: key: below the threshold = too weak to quantify, mostly under pKd 3.1 to 4
Settings in all cases: plain residues with an end cap or a label only (N-terminal biotin on a linker: ado-ado)
LIN7C, Q9NUP9 = biological target: T1, LIN7C, Q9NUP9
GORASP2, Q9H8Y8 = biological target: GORASP2, Q9H8Y8
DLG4_1, P78352 = biological target: DLG4_1, P78352
Sequence of DLG4_1, P78352 (P78352 62-152): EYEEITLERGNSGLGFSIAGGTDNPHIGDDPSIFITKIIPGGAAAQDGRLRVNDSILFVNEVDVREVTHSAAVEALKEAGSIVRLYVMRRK

CASK, O14936 = biological target: CASK, O14936
Sequence of CASK, O14936 (O14936 487-570): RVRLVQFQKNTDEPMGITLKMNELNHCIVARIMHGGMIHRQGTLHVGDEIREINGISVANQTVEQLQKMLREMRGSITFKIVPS

APBA1_1, Q02410 = biological target: T2, APBA1_1, Q02410
MAGI2_3, Q86UL8 = biological target: MAGI2_3, Q86UL8
Sequence of MAGI2_3, Q86UL8 (Q86UL8 600-682): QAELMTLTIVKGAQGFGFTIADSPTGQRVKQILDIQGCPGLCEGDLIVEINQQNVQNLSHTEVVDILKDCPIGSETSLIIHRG

MPP7, Q5T2T1 = biological target: T3, MPP7, Q5T2T1
DLG3_2, Q92796 = biological target: T4, DLG3_2, Q92796
GRIP1_3, Q9Y3R0 = biological target: T5, GRIP1_3, Q9Y3R0
GRIP1_4, Q9Y3R0 = biological target: T6, GRIP1_4, Q9Y3R0
LNX1_1, Q8TBB1 = biological target: LNX1_1, Q8TBB1
Sequence of LNX1_1, Q8TBB1 (Q8TBB1 261-371): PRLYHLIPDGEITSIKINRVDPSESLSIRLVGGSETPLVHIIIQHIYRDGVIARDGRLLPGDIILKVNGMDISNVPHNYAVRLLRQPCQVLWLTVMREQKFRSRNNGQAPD

LIN7B, Q9HAP6 = biological target: T7, LIN7B, Q9HAP6
GIPC2, Q8TF65 = biological target: GIPC2, Q8TF65
Sequence of GIPC2, Q8TF65 (Q8TF65 112-203): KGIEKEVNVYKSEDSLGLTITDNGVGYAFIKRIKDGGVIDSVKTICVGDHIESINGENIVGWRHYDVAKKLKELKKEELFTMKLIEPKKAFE

NHERF4_2, Q86UT5 = biological target: NHERF4_2, Q86UT5
Sequence of NHERF4_2, Q86UT5 (Q86UT5 220-308): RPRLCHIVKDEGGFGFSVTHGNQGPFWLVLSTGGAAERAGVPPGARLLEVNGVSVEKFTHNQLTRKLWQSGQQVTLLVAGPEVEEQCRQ

GRIP2_5, Q9C0E4 = biological target: GRIP2_5, Q9C0E4
Sequence of GRIP2_5, Q9C0E4 (Q9C0E4 544-642): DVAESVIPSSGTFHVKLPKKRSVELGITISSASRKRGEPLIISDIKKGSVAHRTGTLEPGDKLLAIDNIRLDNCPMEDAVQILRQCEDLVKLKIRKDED

FRMPD4, Q14CM0 = biological target: FRMPD4, Q14CM0
Sequence of FRMPD4, Q14CM0 (Q14CM0 67-160): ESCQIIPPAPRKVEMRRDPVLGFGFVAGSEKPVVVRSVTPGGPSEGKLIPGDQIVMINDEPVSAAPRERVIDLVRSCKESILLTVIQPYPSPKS

DFNB31_2, Q9P202 = biological target: T8, DFNB31_2, Q9P202
Inadl_2, Q8NI35 = biological target: Inadl_2, Q8NI35
Sequence of Inadl_2, Q8NI35 (Q8NI35 238-335): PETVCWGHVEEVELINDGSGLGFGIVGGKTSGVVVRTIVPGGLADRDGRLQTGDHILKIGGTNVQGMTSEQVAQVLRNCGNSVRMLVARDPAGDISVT

FRMPD3, Q5JV73 = biological target: FRMPD3, Q5JV73
Sequence of FRMPD3, Q5JV73 (Q5JV73 12-100): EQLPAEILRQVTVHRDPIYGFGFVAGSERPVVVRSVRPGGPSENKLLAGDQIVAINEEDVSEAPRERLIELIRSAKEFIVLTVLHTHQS

ARHGAP21, Q5T5U3 = biological target: T9, ARHGAP21, Q5T5U3
GORASP1, Q9BQQ3 = biological target: GORASP1, Q9BQQ3
Sequence of GORASP1, Q9BQQ3 (Q9BQQ3 1-208): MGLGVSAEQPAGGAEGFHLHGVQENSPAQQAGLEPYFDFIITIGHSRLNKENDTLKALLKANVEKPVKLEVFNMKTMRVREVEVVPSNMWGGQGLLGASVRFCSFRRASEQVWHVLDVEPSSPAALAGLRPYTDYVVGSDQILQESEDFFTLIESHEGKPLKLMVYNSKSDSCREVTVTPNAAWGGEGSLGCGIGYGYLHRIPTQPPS

GRID2IP_1, A4D2P6 = biological target: GRID2IP_1, A4D2P6
Sequence of GRID2IP_1, A4D2P6 (A4D2P6 1-87): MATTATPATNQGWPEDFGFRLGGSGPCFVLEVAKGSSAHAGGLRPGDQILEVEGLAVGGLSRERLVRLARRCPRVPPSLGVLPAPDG

MAGI2_4, Q86UL8 = biological target: MAGI2_4, Q86UL8
Sequence of MAGI2_4, Q86UL8 (Q86UL8 772-865): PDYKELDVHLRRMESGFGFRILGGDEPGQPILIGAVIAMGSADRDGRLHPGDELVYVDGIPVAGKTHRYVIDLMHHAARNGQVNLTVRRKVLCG

HTRA3, P83110 = biological target: T10, HTRA3, P83110
PDZRN3_1, Q9UPQ7 = biological target: T11, PDZRN3_1, Q9UPQ7

| pKd (LIN7C, Q9NUP9) | pKd (GORASP2, Q9H8Y8) | pKd (DLG4_1, P78352) | pKd (CASK, O14936) | pKd (APBA1_1, Q02410) | pKd (MAGI2_3, Q86UL8) | pKd (MPP7, Q5T2T1) | pKd (DLG3_2, Q92796) | pKd (GRIP1_3, Q9Y3R0) | pKd (GRIP1_4, Q9Y3R0) | pKd (LNX1_1, Q8TBB1) | pKd (LIN7B, Q9HAP6) | pKd (GIPC2, Q8TF65) | pKd (NHERF4_2, Q86UT5) | pKd (GRIP2_5, Q9C0E4) | pKd (FRMPD4, Q14CM0) | pKd (DFNB31_2, Q9P202) | pKd (Inadl_2, Q8NI35) | pKd (FRMPD3, Q5JV73) | pKd (ARHGAP21, Q5T5U3) | Binder | further results |
| --- | --- | --- | --- | --- | --- | --- | --- | --- | --- | --- | --- | --- | --- | --- | --- | --- | --- | --- | --- | --- | --- |
| below the threshold | below the threshold | 3.85 | below the threshold | below the threshold | below the threshold | below the threshold | below the threshold | below the threshold | below the threshold | 4.01 | below the threshold | below the threshold | below the threshold | below the threshold | below the threshold | below the threshold | below the threshold | below the threshold | 4.1 | LGRSTPQSEV [DGKH, Q86XP1] | pKd (GORASP1, Q9BQQ3): below the threshold; pKd (GRID2IP_1, A4D2P6): below the threshold; pKd (MAGI2_4, Q86UL8): 3.52; pKd (HTRA3, P83110): below the threshold; pKd (PDZRN3_1, Q9UPQ7): below the threshold |
| 4.31 | 5.13 | 5.79 | below the threshold | below the threshold | below the threshold | below the threshold | 5.44 | below the threshold | below the threshold | 4.47 | below the threshold | below the threshold | below the threshold | below the threshold | 3.79 | below the threshold | below the threshold | below the threshold | 3.82 | RRRESYSTTV [EVI5, O60447] | pKd (GORASP1, Q9BQQ3): 4.7; pKd (GRID2IP_1, A4D2P6): below the threshold; pKd (MAGI2_4, Q86UL8): 4.63; pKd (HTRA3, P83110): 3.66; pKd (PDZRN3_1, Q9UPQ7): 3.83 |
| 3.88 | below the threshold | 3.49 | 3.61 | below the threshold | 3.55 | below the threshold | 3.65 | below the threshold | below the threshold | below the threshold | 3.85 | below the threshold | below the threshold | below the threshold | below the threshold | below the threshold | below the threshold | below the threshold | 3.97 | LRSPRTPSEV [OR10G3, Q8NGC4] | pKd (GORASP1, Q9BQQ3): below the threshold; pKd (GRID2IP_1, A4D2P6): below the threshold; pKd (MAGI2_4, Q86UL8): below the threshold; pKd (HTRA3, P83110): below the threshold; pKd (PDZRN3_1, Q9UPQ7): below the threshold |
